71 sequences from the supplement of paper PMC12636428 can be followed below.

The series has as its system Saccharomyces cerevisiae. Put plainly: transcriptional activation domain activity (GFP:mCherry ratio, weighted mean of sorted bins, harmonized to initial dataset scale) (arbitrary fluorescence ratio units); higher = stronger transcriptional activation. To be noted: beta-estradiol 1 µM; induction time 4 h. How it is done: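 53-aa protein tiles (fungal proteins plus yeast TF control tiles) fused C-terminally to a DBD-estrogen-binding domain-mCherry synthetic TF, integrated in S. cerevisiae (URA3 locus) with a GFP reporter. Cells were induced with 1 uM beta-estradiol for 4 h at 30 C, FACS-sorted into 8 bins by GFP:mCherry ratio and barcodes sequenced. Activity is the read-weighted mean bin fluorescence (GFP:mCherry), averaged over barcodes (median 12); tiles under 50 reads were discarded. New active-learning values were harmonized by linear fit onto the scale of the initial (Hummel et al.) dataset. The assay saturates at low and high signal.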

Turning to “CIKATLAPDSAIFVGPSALIFHVLQLSILIILLLKTGGPGSGKGTQCTRLAKD”, the “transcriptional activation domain activity” value was determined as 29600.
Turning to “CILVYLCHVSYLILLPRFDYVYNIIFNMVIGLTHNALWLLYSLPTSISLFRRF”, the “transcriptional activation domain activity” value amounted to 53500.
The same measure for “CIVLEKYIGRLLGLPCDMVFSVFTAASTLLYDSQTKEPNPDTSRRLKLCIHWL”: 68500; for “CKAHCGYILGHINIFQPINWIFVISSKVFPIDYVLYLLLILFFFSASVVGIAT”: 51900.
The same measure for “CKAHCGYILGHINIFQPLNWIFVKSSKVFPIDYILYLLLVLFFFCSSVVGIAT”: 28100.
On to “CKRCSTLTCVGCGSRPLEKKLATEINVQGTKLTWCCSRGRLFVIWAILCGFDQ”, for which the “transcriptional activation domain activity” value came out at 43900.
With “CKSFITVLMDLPHFTTSCVWVFFFSSFCFLWENASLLYRRLILSFFSFSFLFP”, the “transcriptional activation domain activity” value came out at 66000.
Turning to “CKVHAWLVGLGDVPPREMLQGLGRSLLVRSVVLSCHCLGRMSFVICIHAVHIM”, the “transcriptional activation domain activity” value came to 42700.
The figure for “CKWLGFILLFVPVILSFLFPFLFYSFFSSFVFFFFFFFFVMAVFLFLQSPRSF” is 23300; for “CLAGKDLFGTLFGLRVIIQVVGILMSIPHTLVVTTRWIRRMLLVYFLDQLYYT” it is 80600; for “CLCLILLALLAVELMALFVVITLVILLLIVIVLSLILLFANLMLPLVFLLLYI” it is 26400.
The same measure for “CLFFFSLFSLFILIFLSFLFFPPTSCFPSLYFLFYLSHFLLSFSFLYLYRYRF”: 39500.
“CLHFQFSLLFLLCLYVCVGWIFYACILSYLPPLLFIVSFVTILQRTAFCFGEE”: the “transcriptional activation domain activity” value turned out to be 45000.
The same measure for “CLILVFADSWLFLTFTGVLLHGVGIELNKFTCSLGIFSCILLYTSSKVLIYFF”: 42800; for “CLIVARVVTVVFPFNFCFYFFVERILISVPVVCVCEVCVLEWCVWLRFLFACA”: 32000; for “CLLGTGSFWGLVYISLAYMDGFAFKYLLQFHHIIKLLWISTVGGLIMIAFWSF”: 52900.
The figure for “CLLICIEYLTLSSLLDINVLLTTIVLHSLSLSSNLEVVRVVRRFFWVRCINLL” is 47200; for “CLLLAICCLYHVAFCIIVVLFWVAQVNAAPMEALQMVLAHVRYTFILSVSMVG” it is 63500; for “CLMVVFLIVQLLVITVARRCRKTDARFVLERVFLKTHLGLYVFCLLITNFASG” it is 50200.
The figure for “CLRVRGVLILTIERLLNDFADAEYRKYAKAILHCHQPYPNSSDCYCQILRSLV” is 36900; for “CLRYSLLLVSLGLGAEGSPPFLILFPWTPILLARFYCIGWWVRFGFIFVRLWP” it is 63200.
“CLTQGLGICRDAENPEVNPDTATGEEGDVRTRCFQRDSLKDQVIVLAFLIITT”: the “transcriptional activation domain activity” value was 28900.
The same measure for “CLVIRGRSRFQHGPFWLGSFGLLCNIVLLSWTLFSLVFFSFPFVKPIIPGKPF”: 76900.
The figure for “CLYVHQQLRESLGLGWLRQDTFFNYTRDRICVWNLNRKYSAFSTITSTVTHVR” is 39700; for “CMELMLHYIYVVAISNSSPDWSAYTPFQLSMLGYFNLHHIWLKLLIPWRFFRL” it is 80500.
The figure for “CMIFGRWACGPALLAVIYAILGVGFAFALVVTRSFASKSYGDRLQFRLRHFFF” is 39600.
Regarding “CMLRFVIWLCSKCVPYRSGVWEEFKFLLDHPRRCFTLLFPSSANWWLFWVLIL”, the “transcriptional activation domain activity” value is 59700.
The figure for “CMLRFVIWLCSKWVPYRSGVWEEFKFLLDHPRRCFTLLFPSGANWWLFWVLIL” is 60600; for “CNICVLLCQIIEVASLVEQRDTIELIKTRYLNRLKLMKPDDVLQTYVSTLLNA” it is 32400; for “CNVLCYGYNVVLLVMKLYVKRVFVSPRGVRQPLVLAPYEHTLYIRFSCQPITD” it is 29300.
Turning to “CNVLFYLELVRALVLLHRWDLNTWMLQYSTKTMPPIQPTPLDDFVKYITTFPG”, the “transcriptional activation domain activity” value amounted to 42800.
The same measure for “CPACLSVCTYYLRCLLCSAALYTMGLLAFWWRFLFWHDCILLWSLSLFPFTLS”: 87400; for “CPELYQTHLQITGIITIDTYFSFNDYDAWVQLRDVLDLWLGRAWVFNVVIWKY”: 61500.
The figure for “CPFLKCTVYLRTIKHYLFVLVFLPLDALFSIALSCYALSYARVLVVPLALSIF” is 53700; for “CPQPLIYCKPCKILQTQYDRLHINHMTFNMISHHLYRGLLPLLVVVCLLGKIV” it is 62100.
The figure for “CPSFPSSFFVWVFEPRVAVPNLLGIIYLFCLVSHLPSSLFILSGTLLPLIVCL” is 61300.
For the sequence “CPVHTTLHVPHFLIWSSHILFFFLVFFFVFSLFPFPLVCLVAFFLVLSALPPS”, the “transcriptional activation domain activity” value turned out to be 42700.
The same measure for “CPYYPMICPSFLPLLLVLLFSLYLFLSSPLDFFLPLDFLIHTHNCTFLRTKGQ”: 40000; for “CQRQWADRVQMTLRQMYDLLLIEITRPRYSVFLTSGHSMEEMASVFRLIACIA”: 44400.
Take “CQWWKYLMERLLLLPPLVRVQIILLLFAFVIPKLHLHAHTLACQLVFSLNFLL”: the “transcriptional activation domain activity” value was determined as 51200.
The same measure for “CRESRGNRGTGEGGAGEQGKGEQGKGEQGKGEQGNRGRGSRETGEGGAGKQGN”: 29800; for “CRGFGFWVRVLLGICGVCGVVALRTYAIYHVFQLNLPSRGLRFYLPLLFYIAC”: 57100; for “CRGIYTLHTTNLMIVDDIVYLWRYDRQNVIQSTGLNFITDMPYFMALLAVFQR”: 48500.
The same measure for “CRLLSSSVFLFSFFPFFLFFFYCLLVFFAWFLILRGCFVVHCLCKFGYDWTGG”: 30300.
As to “CRLYRLGFFVFLLVLSGLSFLSFYQVYRLFYFLLLFLFFSLFVFFSFCLILYF”, the “transcriptional activation domain activity” value came to 57400.
The figure for “CSCSAGTRTSSSASSSAWRGASSSSSSRCSATRSSIARSRRTRSSCCARTRTC” is 36200; for “CSNIAEQADQCDFVKSYCDGFSGYYLMLYYCSPFWRPISIFILLSCLLMLFGA” it is 30700.
With “CSNIGAQKNQCEFVQLNCHGFNALYLELFYCSKLWKPIIIAILLSCLLMLFGA”, the “transcriptional activation domain activity” value turned out to be 42200.
The figure for “CTVVFLACTVVYGFMVVTSLLFHLSGFLFHVTTTFPFFFFFFFTLLFFLLHTF” is 38000; for “CTYVRESIKQFNGTYSKALEVRQRSIQFLGQRTKLCWYWLMLRYHLSTLMLVD” it is 39700.
For the sequence “CVCRMILAPLLHLFISFFLLCMAAVASPPLRWILWYYWGCFTVQEVNWHMLRF”, the “transcriptional activation domain activity” value stood at 45500.
The figure for “CVCVGVGIGVGGLVLPLLFFLSFTSFSSLVTFLFSLSFPFSFFLFFLSFFLGL” is 46000.
Turning to “CVFDMPCLWYGVYLVWFGVFSYLLLWCFALGAYYSSTVWSILWLIAAGSWCRQ”, the “transcriptional activation domain activity” value came to 73300.
The same measure for “CVFLSILCLFIHLLLIVSLLLFFCHCLFFSVPITLVCFSMTIHLTPKIFILLF”: 52700.
The figure for “CVFRLGFLFIFLVSYSIAWEWFFLFSLWHLCLLPLDIISIFLLFLGPLLWRSF” is 31500; for “CVGFANYCHFIRFLVYVGLGAIYLMVLLGCRLSSILYHPASATEWVLLGLNLF” it is 63000.
With “CVGLLCLLDTLHLCFSIHMMYFYLIHNFGNVKAVFDIIWSLKGLGTVQVLLIW”, the “transcriptional activation domain activity” value is 45200.
Take “CVRVLCISFSLTLSSSCLLVGIVLRWSLCCLLYFVCVPLHLDTLLSFSSIPTL”: the “transcriptional activation domain activity” value was determined as 50600.
Consider “CVWVYTEIFPEFVWLLIFKLLKSMPEMTRRTGIVVIRSLVSCGIQIGDTFTHK”, for which the “transcriptional activation domain activity” value turned out to be 50600.
For “CWILGFISVFTFAYLVLTVLPNLYLNCPYSTPLSELSWRLSQHLLLLILHLIR”, the “transcriptional activation domain activity” value turned out to be 69500.
Take “CWVVWGRRWLIVLLPIICLITATVSKVLQVYLVNSNAYMLYEVFLMLYISFVL”: the “transcriptional activation domain activity” value came out at 44100.
The same measure for “CWWPFGIPVYMFFHAPETVHYSYFLFFFLSLSLPAMLNIYLVIFIVSWLKSVP”: 38200.
The same measure for “CYFLLLLHLPCYRFLFLFLLWLLGQVSHFFLLSHHLIILFWGFVILYSYYIST”: 63000; for “CYNLNLVFNWIIRCIISIFLVFMISFLPLFLQELVECGTWKAIWCLMKQFTSL”: 35400; for “CYVLRDVFFCTVFFAFAGSIEALLQSGFCGYFPLTSTWQIVLLRALMWMTYWW”: 51000.
Consider “CYWKAKAPPYVLPMLILSKRLHSIFVLRCFNDCFAVLFLWLAILCLQRRSWQL”, for which the “transcriptional activation domain activity” value amounted to 67900.
The figure for “DAAAAAAAKKKKQQQQQQQEKEEEAKKEKASSASSASRASSISAHKASVSAAK” is 19700; for “DAAAEKSGNDVSEKSSGPRAKRRKVDPELDTVDEEPKKQRSKKRVKVSVPNGI” it is 45800.
The figure for “DAAKPAQGLFGGALAAGKSGETPKPAGSLFGAPSSSTKTGEEAKPAGGLFGAG” is 26100; for “DAARGGYQSAGGAGTGSDSETNRGRGRGGRGGFRGERGGRGRGRGATPAKTEG” it is 27200; for “DADEAEGAPDAAGEGAAKKKKKRKPRKKKKGGAGGGGGGGPKVQTSPPRVPIH” it is 11400.
